PMC3883301, “FLC-mediated flowering repression is positively regulated by sumoylation” (Journal of Experimental Botany, 2013)
Numbering of substitutions follows the chain as printed. Names may count otherwise.

T1: GST–FLC, full length (Arabidopsis thaliana, UniProt Q9S7Q7 1-196)
T1 construct: Flowering locus C (FLC), Arabidopsis, full-length GST–FLC bait; The construct section describes only GST–FLC-Myc (pGEX4T-1)
T1 sequence (looked up): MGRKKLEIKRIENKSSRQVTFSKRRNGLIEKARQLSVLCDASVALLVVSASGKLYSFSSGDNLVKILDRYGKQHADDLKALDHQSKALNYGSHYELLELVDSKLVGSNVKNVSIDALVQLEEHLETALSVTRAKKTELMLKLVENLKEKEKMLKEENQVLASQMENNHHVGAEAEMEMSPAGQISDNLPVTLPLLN

B1: His6-FLC (flowering locus C, full length) (natural protein, Arabidopsis thaliana, UniProt Q9S7Q7 1-196, looked up)
chain: T1 sequence (looked up)
notes: Flowering locus C (FLC), MADS-box transcription factor, Arabidopsis; full-length cDNA in pET28a; The printed name puts His6 before FLC; also called Arabidopsis FLC; source: E. coli BL21/DE3 (pLysS), purified (Ni2+-NTA resin)
B2: His6-mFLC (FLC K154R) (natural protein, Arabidopsis thaliana, UniProt Q9S7Q7 1-196, looked up)
chain: T1 sequence (looked up) with K154R
notes: Flowering locus C (FLC), Arabidopsis, full length with the sumoylation site mutation K154R; The construct section describes His6-FLC(K154R)-Myc only; also called mutant FLC; source: E. coli BL21, purified (Ni2+-NTA resin)
B3: GST–AtSIZ1 (D3), amino acids 1–100 (domain or fragment, Arabidopsis thaliana, UniProt Q680Q4 1-100, looked up)
chain: MDLEANCKEKLSYFRIKELKDVLTQLGLSKQGKKQELVDRILTLLSDEQAARLLSKKNTVAKEAVAKLVDDTYRKMQVSGASDLASKGQVSSDTSNLKVK
notes: AtSIZ1, Arabidopsis, amino acids 1-100 (N-terminal region containing the SAP domain), in pGEX4T-1; also called N-terminal region containing the SAP domain of AtSIZ1; source: E. coli BL21/DE3 (pLysS), purified (glutathione resin)

Experiments:
[1] = biological target: T1, GST–FLC, full length; assay: pull-down; 2 μg GST–FLC bait and 2 μg His6-FLC or His6-mFLC prey in 1 ml binding buffer (50 mM TRIS-HCl pH 7.5, 100 mM NaCl, 1% Triton X-100, 0.2% glycerol, 0.5 mM β-mercaptoethanol); 25 °C 2 h; glutathione resin; anti-His blot; details: both partners purified
[2] = biological target: B1; assay: pull-down; 2 μg GST–AtSIZ1 (full length or deletion mutant) or GST bait and 2 μg His6-FLC prey in 1 ml 50 mM TRIS-HCl pH 7.5, 100 mM NaCl, 1% Triton X-100, 0.2% glycerol, 0.5 mM β-mercaptoethanol; 25 °C 2 h; glutathione resin; anti-His blot; details: both partners purified

binding result [1] | binding result [2] | Binder
binds |  | B1
binds |  | B2
 | binds | B3
